Reference: patent publication US6660715B2, “Nonaqueous solutions and suspensions of macromolecules for pulmonary delivery” (Massachusetts Institute of Technology, priority 1998, dated 2003)

Test system: M. lysodeikticus
Assay: Lysozyme activity after aerosolization from ethanol (standard assay against dried cells of M. lysodeikticus)
Format: biochemical
Protocol: […] The reservoir containing the ethanol solution was connected via a plastic tube to a collecting test tube placed in an ice booth to facilitate condensation of the solution. The nebulization was started and continued for 5 minutes. As a result, about one mL of the ethanol solution was collected in the test tube (i.e. was aerosolized). No solution was collected with the nebulizer switched off. The lysozyme activity of the nebulized solution was measured using the standard assay against dried calls of M. lysodeikticus. (Shugar, Biochim. Biophys. Acta 8, 302 (1952)).

Substance: lysozyme: hen egg-white lysozyme (a model protein)
- specific activity of the nebulized solution relative to the initial enzyme solution (0.1 mg/ml solution in ethanol, compressor nebulizer, 5 minutes): the same, (±10%) as that of the initial enzyme solution
- loss of enzymatic activity upon aerosolization (dispersion in ethanol at 1 mg/ml): no appreciable loss of enzymatic activity
- loss of enzymatic activity upon aerosolization (dispersion in ethanol at 10 mg/ml): no appreciable loss of enzymatic activity
